In paper PMC4691288 one finds stoichiometry N data, which are given here for 1 substance.

This assay has as its target WXyn43, GH43 β-xylosidase from Weissella sp. strain 92 (full-length enzyme) (Weissella sp. strain 92). Briefly: SEC.

“WXyn43, GH43 β-xylosidase from Weissella sp. strain 92 (full-length enzyme)”: the stoichiometry N (as a rule, a count of units in the complex or per binding partner) was 4.
